Data from a protein production outcome set (Wang et al. 2014).

Assay: label from the status in PepcDB records

Row | Sequence | protein production
1 | SDPEISEQDEEKKKYTSVCVGREEDIRKSERMTAVVHDREVVIFYHKGEYHAMDIRCYHSGGPLHLGEIEDFNGQSCIVCPWHKYKITLATGEGLYQSINPKDPSAKPKWCSKGVKQRIHTVKVDNGNIYVTLSKEPFKCDSDYYATGEFKVIQSSS | failed
2 | MSSQLDECNRLLWEKCPVGLVLWRKNGALIDANSTYAAILGSTVPETLNFNYWQITPENYLASERTILEQLEQTGCHQAYEKEYLHQDGHLVPVKVSTVIIEKDGEKLMWSSVEDIS | not failed
3 | MSDAPTVVAYLGPAGTFTEEALYKFADAGVFGDGEIEQLPAKSPQEAVDAVRHGTAQFAVVAIENFVDGPVTPTFDALDQGSNVQIIAEEELDIAFSIMVRPGTSLADVKTLATHPVGYQQVKNWMATTIPDAMYLSASSNGAGAQMVAEGTADAAAAPSRAAELFGLERLVDDVADVRGARTRFVAVQAQAAVSEPTGHDRTSVIFSLPNVPGSLVRALNEFAIRGVDLTRIESRPTRKVFGTYRFHLDISGHIRDIPVAEALRALHLQAEELVFVGSWPSNRAEDSTPQTDQLAKLHKADEWVRAASEGRKLN | not failed
4 | MSEPYGKAFSLMRAEAEPAWRAYTHHAFVEGLKAGTLPREAFLHYLQQDYVFLIHFSRAWALAVVKSETHSEMLAAVGTVNALVAEEMQLHIGICEASGISQEALFATRERAENLAYTRFVLEAGYSGDLLDLLAALAPCVMGYGEIGKRLTAEATSTLYGDWIDTYGGDDYQAACKAVGTLLDDALERRLGAEFTSSPRWSRLCQTFHTATELEVGFWQMGLTP | not failed
5 | MPTVSVKWQKKVLDGIEIDVSLPPYVFKAQLYDLTGVPPERQKIMVKGGLLKDDGDWAAIGVKDGQKLMMMGTADEIVKAPEKAIVFAEDLPEEALATNLGYSAGLVNLGNTCYMNSTVQCLKSVPELKSALSNYSLAARSNDVDQTSHMLTVATRELFGELDRSVLRKKYPQFSQLQNGMHMQQDAEECWTQLLYTLSQSLKAPTSSEGADAVKALFGVNLQSRIKLGVLDNVTDSTVISKCTLHCQESGEESSETESVYSLKCHISHEVNHLHEGLKHGLKGELEKTSPALGRTALYVKESLIDSLPRYLTVQFVRFFWKRESNQKAKILRKVDYPLVLDIFDLCSEDLRKKLEAPRQKLREEEGKKLGLQTSAKSGSKDSDVKMTDAEASANGSGESSTVNPQEGTSSEKETHMTGIYDLVAVLTHKGRSADSGHYVAWVKQESGKWIQYDDDNPSMQREEDITKLSGGGDWHMAYITMYKARFVSM | failed
6 | MALWMDAGATPTTEKEKADLEAISALKESTAIEFKEEGNECVRKGKKHYSEAIDCYTKAISQGVLSDSETSILFSNRSHVNLLLGNYRRALTDAEESMRLSPHNVKAVYRAAKASMSLDLLNEAKSYCEKGIENDPSNEDMKKLLKLVNSKKQEKEQHEAQASQAVVEAKACLSAIENRGVKIGKAMYRELTGLKKPMLDKNNILHWPVLLLYAEAMTSDFVEDFCETDMFATHLDMMFSEDSPPLPWDKNNEYSRDVIELYYEASSGTPLPRSRVLQYLLEGTKGSQAETTGEEDTSATKTPSYLKGSSGMVKVNERRTLHDVLKEPKFVIPEIPVFYIVSKRSKFYKDFTAGKWTPPN | failed
7 | MVSTVRTVLGDVLPEHLGVCDAHDHLFFGSPQLPGQELRDASAARAELAAFREQGGGSVVQWTPYGLGRRAADLPLLSRDTGVHVVAATGLHQAVHYDAGTLAELRGRLADTFVAELTTGIGPSGVRAGLIKVAGGFHALDAHARWTMTAAAEAHHATGAPIAVHLELGTGALDVLDLLCGESGVPPHRVILGHLNRSPDFTVHRQAAEAGAFLAFDGPSRANHATDWRMPDALRALAEAGFGHRLLLGGDTTTAAARSVNGGPGLPYLLRRLRPRLEQALGKDLVGRIFTENPGRAFGVEWR | failed
8 | MTLNIYTEEWAPISFSVDGKPDGLAVQVVQEIQKRIDNQDPIKVVPWARGWKIITEQPNTVLFTMTRTAERERMFSLIGPVAVGTTNFYALKNSNLKINLEHHHHHH | not failed
9 | MKPENKIPVLTRLSDEMTAVVNFQQPGLPPWPADGDIETQRQYYLLERRFWNADAPSMTTRTCAVPTPYGDVTTRLYSPQPTSQATLYYLHGGGFILGNLDTHDRIMRLLARYTGCTVIGIDYSLSPQARYPQAIEETVAVCSYFSQHADEYSLNVEKIGFAGDSAGAMLALASALWLRDKHIRCGNVIAILLWYGLYGLQDSVSRRLFGGAWDGLTREDLDMYEKAYLRNDEDRESPWYCLFNNDLTRDVPPCFIASAEFDPLIDDSRLLHQTLQAHQQPCEYKMYPGTLHAFLHYSRMMTIADDALQDGARFFMARMKTPR | not failed
